In US20180291096A1 (Janssen / Centocor, published 2018):

T1: recombinant human IL-23 (hrIL-23), produced at Centocor (human, UniProt P29460 23-328)
T1 sequence 1: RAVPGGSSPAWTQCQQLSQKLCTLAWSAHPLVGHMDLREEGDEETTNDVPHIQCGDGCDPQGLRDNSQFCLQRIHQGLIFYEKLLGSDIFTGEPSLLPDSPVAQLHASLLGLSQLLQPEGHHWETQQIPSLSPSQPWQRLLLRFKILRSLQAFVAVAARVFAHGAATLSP
T1 sequence 2: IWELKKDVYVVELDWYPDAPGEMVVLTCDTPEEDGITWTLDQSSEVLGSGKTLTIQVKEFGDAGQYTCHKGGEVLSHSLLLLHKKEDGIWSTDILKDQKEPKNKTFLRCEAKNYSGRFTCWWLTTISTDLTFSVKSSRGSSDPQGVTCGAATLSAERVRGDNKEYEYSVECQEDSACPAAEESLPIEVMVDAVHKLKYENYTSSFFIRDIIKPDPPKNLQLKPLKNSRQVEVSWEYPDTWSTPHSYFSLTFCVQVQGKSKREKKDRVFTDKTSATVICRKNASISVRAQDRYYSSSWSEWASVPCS


molecular target: T1, recombinant human IL-23 (hrIL-23), …; assay: cell-based or functional assay

| IC50, inhibition of IL-17 production [µg/mL] | Binder |
| --- | --- |
| 0.17 | MOR05036 mAb (antibody, human IgG1, V domains shown) VH: QVELVQSGAEVKKPGSSVKVSCKASGGTFSSNYISWVRQAPGQGLEWMGLIDPVFGGAYYAQKFQGRVTITADESTSTAYMELSSLRSEDTAVYYCARSKKGMYGGWTYPLMMFDLWGQGTLVTVSS VL: not shown |
| 0.215 | MOR05031 mAb (antibody, human IgG1, V domains shown) VH: QVELVQSGAEVKKPGSSVKVSCKASGGTFSSNYISWVRQAPGQGLEWMGGIIPIFGHANYAQKFQGRVTITADESTSTAYMELSSLRSEDTAVYYCARSKKGMYGGWTYPLMMFDLWGQGTLVTVSS VL: not shown |
| 0.172 | MOR05032 mAb (antibody, human IgG1, V domains shown) VH: QVELVQSGAEVKKPGSSVKVSCKASGGTFSSNYISWVRQAPGQGLEWMGGIIPIFGHANYAQKFQGRVTITADESTSTAYMELSSLRSEDTAVYYCARSKKGMYGGWTYPLMMFDLWGQGTLVTVSS VL: not shown |
| 0.283 | MOR05033 mAb (antibody, human IgG1, V domains shown) VH: QVELVQSGAEVKKPGSSVKVSCKASGGTFSSNYISWVRQAPGQGLEWMGIIIPPIGNAWYAQKFQGRVTITADESTSTAYMELSSLRSEDTAVYYCARSKKGMYGGWTYPLMMFDLWGQGTLVTVSS VL: not shown |
| 0.185 | MOR05034 mAb (antibody, human IgG1, V domains shown) VH: QVELVQSGAEVKKPGSSVKVSCKASGGTFSSNYISWVRQAPGQGLEWMGLIDPNFGGAYYAQKFQGRVTITADESTSTAYMELSSLRSEDTAVYYCARSKKGMYGGWTYPLMMFDLWGQGTLVTVSS VL: not shown |
| 0.336 | MOR05037 mAb (antibody, human IgG1, V domains shown) VH: QVELVQSGAEVKKPGSSVKVSCKASGGTFSSNYISWVRQAPGQGLEWMGLIDPMFGGAYYAQKFQGRVTITADESTSTAYMELSSLRSEDTAVYYCARSKKGMYGGWTYPLMMFDLWGQGTLVTVSS VL: not shown |
| 0.161 | MOR05039 mAb (antibody, human IgG1, V domains shown) VH: QVELVESGGGLVQPGGSLRLSCAASGFTFSSFGMSWVRQAPGKGLEWVSNIEHKYLNYATYYAASVKGRFTISRDNSKNTLYLQMNSLRAEDTAVYYCARYWGTPYLMQFDNWGQGTLVTVSS VL: DIALTQPASVSGSPGQSITISCTGTSSDVGGYNSVSWYQQHPGKAPKLMIYSVSSRPSGVSNRFSGSKSGNTASLTISGLQAEDEADYYCSSYDTNKPLVVFGGGTKLTVL |
| 0.198 | MOR05063 mAb (antibody, human IgG1, V domains shown) VH: QVELVESGGGLVQPGGSLRLSCAASGFTFSSFGMSWVRQAPGKGLEWVSNISSSGSSTYYADSVKGRFTISRDNSKNTLYLQMNSLRAEDTAVYYCARYWGTPYLMQFDNWGQGTLVTVSS VL: DIALTQPASVSGSPGQSITISCTGTSSDVGGYNSVSWYQQHPGKAPKLMIYSVSSRPSGVSNRFSGSKSGNTASLTISGLQAEDEADYYCGSWDPIFSYEVFGGGTKLTVL |
| 0.309 | MOR05061 mAb (antibody, human IgG1, V domains shown) VH: QVELVESGGGLVQPGGSLRLSCAASGFTFSSFGMSWVRQAPGKGLEWVSNISSSGSSTYYADSVKGRFTISRDNSKNTLYLQMNSLRAEDTAVYYCARYWGTPYLMQFDNWGQGTLVTVSS VL: DIALTQPASVSGSPGQSITISCTGTSSDVGGYNSVSWYQQHPGKAPKLMIYSVSSRPSGVSNRFSGSKSGNTASLTISGLQAEDEADYYCSSYYFYLQRIVFGGGTKLTVL |
| 0.199 | MOR05062 mAb (antibody, human IgG1, V domains shown) VH: QVELVESGGGLVQPGGSLRLSCAASGFTFSSFGMSWVRQAPGKGLEWVSNISSSGSSTYYADSVKGRFTISRDNSKNTLYLQMNSLRAEDTAVYYCARYWGTPYLMQFDNWGQGTLVTVSS VL: DIALTQPASVSGSPGQSITISCTGTSSDVGGYNSVSWYQQHPGKAPKLMIYSVSSRPSGVSNRFSGSKSGNTASLTISGLQAEDEADYYCQTYYFSYSGPVFGGGTKLTVL |
